Results: patent US20210180089A1, “NANOPARTICLES FOR TRANSFECTION” (LOXEGEN HOLDINGS PTY LTD, priority 2018, published 2021)
Ends that are not written are not given here.

Test: Average particle diameter of peptide/DNA nanoparticles by ZetaPALS dynamic light scattering
Format: physicochemical
Protocol: The DNA was diluted to 50-100 ug/mL in 5mM HEPES pH 7.4. A peptide solution at a concentration of 100-180 ug/mL in 5 mM HEPES was prepared. A 250 uL volume of the DNA solution was transferred into a 2 mL Eppendorf tube. Using a 100 uL peptide, an equal volume of the peptide solution was titrated, at an appropriate rate to avoid aggregation, into the DNA solution while vortexing. The solution slowly turns translucent and no visible particles should occur. The particle size is measured using a dynamic light scattering (DLS) instrument (such as the Brookhaven ZetaPALS). The particle size should be below 100 nm, preferably below 80 nm. The nanoparticles were filtered through a 0.22 um sterile filter. The formulation was stored in a refrigerator (2-8 deg C.) until desired for use and/or for PEGylation. Where PEGylated peptide/DNA nanoparticles are required, a PEG-Zn solution was prepared in a separate tube at a concentration of about 400 mg/mL. 25-100 uL of the PEG solution was slowly added to 500 uL of the peptide/DNA nanoparticle preparation, depending on the degree of PEG-coating required. The particle size was measured by DLS. The particle size should be about 100-140 nm depending on the amount of PEG added. The formulation was store in a refrigerator (2-8 deg C.). Above describes a range for the peptide/DNA ratio which can be used in one embodiment. In a preferred example, the ratios used for nanoparticle preparation were: 100 ug/mL DNA and 100 ug/mL peptide mixed at equal volume. PEGylation: 50 uL of 440 mg/mL PEG-IDA-Zn into 500 uL nanoparticles as prepared above.

| Substance | Average Particle Diameter (via ZETA Pals particle size analysis) (GFP, PEG) | Average Particle Diameter (via ZETA Pals particle size analysis) (GFP, non-PEG) | Average Particle Diameter (via ZETA Pals particle size analysis) (luciferase, PEG) | Average Particle Diameter (via ZETA Pals particle size analysis) (luciferase, non-PEG) |
| --- | --- | --- | --- | --- |
| (H-Lys-His-Lys-His-His-Lys-His-His-Lys-His-His-Lys-His-His-Lys-His-His-Lys-His-Lys)4-Lys-Lys-Lys-His-His-His-His-Asn-His-His-His-His-OH (chain 1 H-KHKHHKHHKHHKHHKHHKHK; chain 2 KKKHHHHNHHHH-OH; also: four copies of chain 1 branched on core chain 2, attachment points not given here) [Peptide 2070, original peptide HK, 2:3 Lys:His, 4 branches] | 127.4 nm (GFP, PEG) | 66.0 nm (GFP, non-PEG) | 94.5 nm (luciferase, PEG) | 58.5 nm (luciferase, non-PEG) |
| (H-Lys-His-Lys-His-His-Lys-His-Lys-His-His-Lys-His-Lys-His-His-Lys-His-Lys-His-Lys)4-Lys-Lys-Lys-His-His-His-His-Asn-His-His-His-His-OH (chain 1 H-KHKHHKHKHHKHKHHKHKHK; chain 2 KKKHHHHNHHHH-OH; also: four copies of chain 1 branched on core chain 2, attachment points not given here) [Peptide 2597, 9:11 Lys:His] | 90.9 nm (GFP, PEG) | 54.7 nm (GFP, non-PEG) | 86.0 nm (luciferase, PEG) | 51.3 nm (luciferase, non-PEG) |
| (H-Lys-His-Lys-His-Lys-His-Lys-His-Lys-His-Lys-His-Lys-His-Lys-His-Lys-His-His-Lys)4-Lys-Lys-Lys-His-His-His-His-Asn-His-His-His-His-OH (chain 1 H-KHKHKHKHKHKHKHKHKHHK; chain 2 KKKHHHHNHHHH-OH; also: four copies of chain 1 branched on core chain 2, attachment points not given here) [Peptide 2596, 1:1 Lys:His] | 124.1 nm (GFP, PEG) | 82.1 nm (GFP, non-PEG) | 77.4 nm (luciferase, PEG) | 64.3 nm (luciferase, non-PEG) |
| (H-Orn-His-Orn-His-His-Orn-His-His-Orn-His-His-Orn-His-His-Orn-His-His-Orn-His-Orn)4-Lys-Lys-Lys-His-His-His-His-Asn-His-His-His-His-OH [Peptide 2595] | 101.3 nm (GFP, PEG) | 73.7 nm (GFP, non-PEG) | 70.9 nm (luciferase, PEG) | 65.9 nm (luciferase, non-PEG) |
